Measurements as given in patent US20210221886A1.

Molecular target: human CD47 antigen (human) (UniProt Q08722)
Assay: flow cytometry on human red blood cells at the maximal binding concentration; reference Hu5F9

- percent reduction of RBC binding with respect to Hu5F9: 80%
Substance: anti-CD47 IgG4 AO-176 (antibody)
